Results taken from PMC7335806.

Experiments:
[1] = in vitro vesicle formation assay, immunoblot; details: glycan lost; control: Fzd6WT
[2] = immunofluorescence, surface localisation in COS7 cells; details: glycan lost; control: HA-Fzd6wt

B1: Frizzled-6 (Fzd6): N38A, N352A (protein)
parent chain: MERSPFLLACILLPLVRGHSLFTCEPITVPRCMKMTYNMTFFPNLMGHYDQGIAAVEMGHFLHLANLECSPNIEMFLCQAFIPTCTEQIHVVLPCRKLCEKIVSDCKKLMDTFGIRWPEELECNRLPHCDDTVPVTSHPHTELSGPQKKSDQVPRDIGFWCPKHLRTSGDQGYRFLGIEQCAPPCPNMYFKSDELDFAKSFIGIVSIFCLCATLFTFLTFLIDVRRFRYPERPIIYYSVCYSIVSLMYFVGFLLGNSTACNKADEKLELGDTVVLGSKNKACSVVFMFLYFFTMAGTVWWVILTITWFLAAGRKWSCEAIEQKAVWFHAVAWGAPGFLTVMLLAMNKVEGDNISGVCFVGLYDLDASRYFVLLPLCLCVFVGLSLLLAGIISLNHVRQVIQHDGRNQEKLKKFMIRIGVFSGLYLVPLVTLLGCYVYELVNRITWEMTWFSDHCHQYRIPCPYQANPKARPELALFMIKYLMTLIVGISAVFWVGSKKTCTEWAGFFKRNRKRDPISESRRVLQESCEFFLKHNSKVKHKKKHGAPGPHRLKVISKSMGTSTGATTNHGTSAMAIADHDYLGQETSTEVHTSPEASVKEGRADRANTPSAKDRDCGESAGPSSKLSGNRNGRESRAGGLKERSNGSEGAPSEGRVSPKSSVPETGLIDCSTSQAASSPEPTSLKGSTSLPVHSASRARKEQGAGSHSDA
localisation_or_trafficking [1]: decreases
localisation_or_trafficking [2]: decreases
